In experiment [1] the target is phosphorylated ATG101 (His-ATG101 phosphorylated in vitro by ULK1) (human) (UniProt Q9BSB4). The experiment in a line: mass photometry.
The target of experiment [2] is ATG101 (human) (UniProt Q9BSB4). Nature of the experiment: mass photometry.
For experiment [3] the target is unchanged. The experiment in a line: cross-linking.
The target of another experiment is His-ATG101 (human) (UniProt Q9BSB4). The experiment in a line: mass photometry.
Experiment [4] deals with phospho-mimetic ATG101 mutants S11D and S203D (human) (UniProt Q9BSB4). The experiment in a line: mass photometry.
The target of experiment [5] is ATG101 co-expressed with ULK1 (human) (UniProt Q9BSB4). The experiment in a line: mass photometry.
For experiment [6], the target named is phosphorylated ATG101 purified from insect cells treated with Okadaic Acid (human) (UniProt Q9BSB4). The experiment in a line: mass photometry.
Experiment [7] concerns the target ATG13-ATG101^Alexa488 (pre-formed complex) (UniProt Q9BSB4). The experiment in a line: fluorescence polarisation.
A further experiment concerns the target T1, ^MBPATG13 full-length (UniProt O75143 1-517).
T1 sequence: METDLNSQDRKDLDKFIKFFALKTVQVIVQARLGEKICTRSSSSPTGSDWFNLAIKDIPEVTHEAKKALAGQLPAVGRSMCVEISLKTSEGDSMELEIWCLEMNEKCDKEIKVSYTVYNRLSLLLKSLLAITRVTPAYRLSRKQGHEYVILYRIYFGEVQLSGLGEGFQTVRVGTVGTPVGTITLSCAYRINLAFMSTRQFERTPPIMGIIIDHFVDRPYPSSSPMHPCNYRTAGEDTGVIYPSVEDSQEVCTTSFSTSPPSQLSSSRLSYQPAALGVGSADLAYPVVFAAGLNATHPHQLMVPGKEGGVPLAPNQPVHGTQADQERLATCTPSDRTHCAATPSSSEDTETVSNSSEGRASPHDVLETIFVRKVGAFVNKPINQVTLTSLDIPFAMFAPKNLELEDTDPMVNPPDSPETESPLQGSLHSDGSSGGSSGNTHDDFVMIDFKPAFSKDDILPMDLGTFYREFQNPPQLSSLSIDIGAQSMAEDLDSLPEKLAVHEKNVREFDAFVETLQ
The experiment in a line: fluorescence polarisation.

On to “phosphorylated ATG101 (His-ATG101 phosphorylated in vitro by ULK1) (from UniProt Q9BSB4 1-218) (natural protein)”, for which, in [1], the Kd lay within 100 to 250 nM and the stoichiometry N came to 2.

On to “ATG101 (from UniProt Q9BSB4 1-218) (natural protein)”, for which the stoichiometry N in the experiment with ATG101 (human) [2] and with ATG101 (human) [3] was 2 in each case.

Turning to “His-ATG101 (from UniProt Q9BSB4 1-218) (natural protein)”, in the experiment with His-ATG101 (human), the stoichiometry N was 2.

For the molecule “phospho-mimetic ATG101 mutants S11D and S203D (from UniProt Q9BSB4 1-218) (natural protein)”, in experiment [4], the stoichiometry N came out at 2.

The molecule “ATG101 co-expressed with ULK1 (from UniProt Q9BSB4 1-218) (natural protein)” had a stoichiometry N in [5] of 2.

Turning to “phosphorylated ATG101 purified from insect cells treated with Okadaic Acid (from UniProt Q9BSB4 1-218) (natural protein)”, the stoichiometry N in [6] was 2.

B1: ^MBPATG9A (natural protein)
chain: MAQFDTEYQRLEASYSDSPPGEEDLLVHVAEGSKSPWHHIENLDLFFSRVYNLHQKNGFTCMLIGEIFELMQFLFVVAFTTFLVSCVDYDILFANKMVNHSLHPTEPVKVTLPDAFLPAQVCSARIQENGSLITILVIAGVFWIHRLIKFIYNICCYWEIHSFYLHALRIPMSALPYCTWQEVQARIVQTQKEHQICIHKRELTELDIYHRILRFQNYMVALVNKSLLPLRFRLPGLGEAVFFTRGLKYNFELILFWGPGSLFLNEWSLKAEYKRGGQRLELAQRLSNRILWIGIANFLLCPLILIWQILYAFFSYAEVLKREPGALGARCWSLYGRCYLRHFNELEHELQSRLNRGYKPASKYMNCFLSPLLTLLAKNGAFFAGSILAVLIALTIYDEDVLAVEHVLTTVTLLGVTVTVCRSFIPDQHMVFCPEQLLRVILAHIHYMPDHWQGNAHRSQTRDEFAQLFQYKAVFILEELLSPIVTPLILIFCLRPRALEIIDFFRNFTVEVVGVGDTCSFAQMDVRQHGHPQWLSAGQTEASVYQQAEDGKTELSLMHFAITNPGWQPPRESTAFLGFLKEQVQRDGAAASLAQGGLLPENALFTSIQSLQSESEPLSLIANVVAGSSCRGPPLPRDLQGSRHRAEVASALRSFSPLQPGQAPTGRAHSTMTGSGVDARTASSGSSVWEGQLQSLVLSEYASTEMSLHALYMHQLHKQQAQAEPERHVWHRRESDESGESAPDEGGEGARAPQSIPRSASYPCAAPRPGAPETTALHGGFQRRYGGITDPGTVPRVPSHFSRLPLGGWAEDGQSASRHPEPVPEEGSEDELPPQVHKV
As to B1, the on-rate (kon) in experiment [7] is 15000 M⁻¹ s⁻¹.

B2: phosphorylated ATG101^Alexa488 (natural protein)
chain: MNCRSEVLEVSVEGRQVEEAMLAVLHTVLLHRSTGKFHYKKEGTYSIGTVGTQDVDCDFIDFTYVRVSSEELDRALRKVVGEFKDALRNSGGDGLGQMSLEFYQKKKSRWPFSDECIPWEVWTVKVHVVALATEQERQICREKVGEKLCEKIINIVEVMNRHEYLPKMPTQSEVDNVFDTGLRDVQPYLYKISFQITDALGTSVTTTMRRLIKDTLAL
For the molecule B2, in the experiment with ^MBPATG13 full-length, the on-rate (kon) turned out to be 14.7 M⁻¹ s⁻¹.

B3: ATG101^Alexa488 (natural protein)
chain: B2 chain
For the molecule B3, the kon in the experiment with ^MBPATG13 full-length is 14.7 M⁻¹ s⁻¹.

Source of the values: paper doi:10.1101/2025.06.27.661946 (bioRxiv, 2025).
